This note sets out measurements from article PMC3335157.

pKd: −log10 of the molar value.

Assay [1] deals with Full-length αvβ3 integrin (UniProt P06756). Nature of the assay: SPR; BIAcore T100; αvβ3 integrin immobilised via primary amines on a CM5 chip (1341-2655 RU); NC1 α4(IV) injected at several concentrations and flow rates; 25°C; 10 mM Hepes pH 7.4, 150 mM NaCl, 1 mM MgCl2, 2 mM MnCl2, 50 mM β-octyl-D-glucopyranoside; global fit, two-state model. A general note: Surface plasmon resonance follows binding to a sensor surface in real time, without labels.
Sequence of UniProt P06756 (P06756 31-1048, chain 1 of 2): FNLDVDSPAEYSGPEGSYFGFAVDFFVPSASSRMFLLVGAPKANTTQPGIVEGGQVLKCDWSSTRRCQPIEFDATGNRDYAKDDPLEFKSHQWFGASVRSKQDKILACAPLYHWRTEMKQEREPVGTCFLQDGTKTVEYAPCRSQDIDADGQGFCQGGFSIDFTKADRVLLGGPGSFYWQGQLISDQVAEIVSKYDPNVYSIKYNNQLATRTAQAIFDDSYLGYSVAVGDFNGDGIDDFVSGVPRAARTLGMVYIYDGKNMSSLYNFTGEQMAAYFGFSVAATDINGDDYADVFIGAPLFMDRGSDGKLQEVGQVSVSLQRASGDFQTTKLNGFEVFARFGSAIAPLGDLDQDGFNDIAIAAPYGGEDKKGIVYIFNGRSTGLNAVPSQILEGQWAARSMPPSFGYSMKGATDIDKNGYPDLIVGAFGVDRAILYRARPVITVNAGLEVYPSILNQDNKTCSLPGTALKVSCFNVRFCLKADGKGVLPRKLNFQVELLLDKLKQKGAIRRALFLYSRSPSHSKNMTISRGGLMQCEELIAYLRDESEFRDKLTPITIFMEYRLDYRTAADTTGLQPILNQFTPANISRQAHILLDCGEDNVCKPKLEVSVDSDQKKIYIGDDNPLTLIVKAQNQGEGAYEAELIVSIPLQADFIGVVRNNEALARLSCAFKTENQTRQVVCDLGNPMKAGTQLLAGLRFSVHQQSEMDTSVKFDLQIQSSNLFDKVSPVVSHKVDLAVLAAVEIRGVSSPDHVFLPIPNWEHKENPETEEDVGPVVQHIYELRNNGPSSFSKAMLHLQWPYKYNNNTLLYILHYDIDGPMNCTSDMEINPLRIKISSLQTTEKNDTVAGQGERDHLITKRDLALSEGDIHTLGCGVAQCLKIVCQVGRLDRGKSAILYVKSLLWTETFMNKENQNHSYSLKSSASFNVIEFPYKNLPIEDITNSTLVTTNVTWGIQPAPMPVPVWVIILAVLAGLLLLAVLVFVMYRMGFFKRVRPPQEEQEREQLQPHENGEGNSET
Sequence of UniProt P06756 (P05106 27-788, chain 2 of 2, further chain): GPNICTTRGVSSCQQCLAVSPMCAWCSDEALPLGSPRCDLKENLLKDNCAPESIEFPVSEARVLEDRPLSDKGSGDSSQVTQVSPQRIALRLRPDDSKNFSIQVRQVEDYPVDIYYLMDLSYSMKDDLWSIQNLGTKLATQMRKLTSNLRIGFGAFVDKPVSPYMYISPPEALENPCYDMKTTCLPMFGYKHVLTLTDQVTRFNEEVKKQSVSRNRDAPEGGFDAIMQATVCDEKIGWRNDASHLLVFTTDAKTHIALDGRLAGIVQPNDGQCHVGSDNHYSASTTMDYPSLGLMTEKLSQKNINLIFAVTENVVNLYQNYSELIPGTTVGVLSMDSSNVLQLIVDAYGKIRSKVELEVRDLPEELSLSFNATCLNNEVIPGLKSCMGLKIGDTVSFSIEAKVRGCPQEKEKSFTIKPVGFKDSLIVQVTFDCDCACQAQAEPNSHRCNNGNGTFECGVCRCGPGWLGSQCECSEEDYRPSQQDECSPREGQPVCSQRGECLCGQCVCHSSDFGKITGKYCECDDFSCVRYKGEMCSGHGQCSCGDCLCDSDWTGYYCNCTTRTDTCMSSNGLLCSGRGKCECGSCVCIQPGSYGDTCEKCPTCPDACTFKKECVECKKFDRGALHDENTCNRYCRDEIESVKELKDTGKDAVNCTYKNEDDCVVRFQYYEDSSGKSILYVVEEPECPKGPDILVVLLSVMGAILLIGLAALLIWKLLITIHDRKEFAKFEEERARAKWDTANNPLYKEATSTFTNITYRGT

For assay [2] the target is unchanged.

In assay [1], “Recombinant human NC1 α4(IV) domain (NC1[α4(IV)1-229]) (domain or fragment)” had a pKd of 6.83. For the same substance, in assay [2], the adhesion of UACC-903 melanoma cells on recombinant NC1 α4(IV) substratum; change after preincubation of the cells with an anti-αvβ3 integrin blocking antibody (10 µg/mL); irrelevant IgG had no effect was -38%.

For orientation: pKd means −log10 of the Kd, conventionally taken in molar units. A higher pKd goes with a small Kd.
